In paper PMC9160355:

Biological target: Rho WT (Escherichia coli) (UniProt P0AG30)
Experiment: EMSA
Conditions: 25 mM Tris-HCl pH 8.0, 5 mM MgCl2, 50 mM KCl, 1 mM DTT, 0.1 mg/ml BSA; 5 nM RNA, 0-50 nM Rho; 37 °C 5 min; 4% native gel at 4 °C

Rho WT (Escherichia coli), sequence (P0AG30 whole entry): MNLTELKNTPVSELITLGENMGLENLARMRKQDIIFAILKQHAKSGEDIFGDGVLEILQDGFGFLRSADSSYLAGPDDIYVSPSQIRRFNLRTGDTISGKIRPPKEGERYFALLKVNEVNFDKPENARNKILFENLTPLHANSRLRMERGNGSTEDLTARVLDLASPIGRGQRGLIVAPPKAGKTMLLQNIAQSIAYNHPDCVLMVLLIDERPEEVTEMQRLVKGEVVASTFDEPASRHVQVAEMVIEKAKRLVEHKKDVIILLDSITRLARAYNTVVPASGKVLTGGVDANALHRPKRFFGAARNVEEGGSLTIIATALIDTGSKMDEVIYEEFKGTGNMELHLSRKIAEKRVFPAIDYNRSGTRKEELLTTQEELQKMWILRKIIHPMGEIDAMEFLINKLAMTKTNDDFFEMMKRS

Substance	Kd [µM]
gntX terminator RNA	0.0232
setC terminator RNA	0.0115
trac (rac) terminator RNA	0.00308
dmsA terminator RNA	0.0161
ydeT terminator RNA	0.0163
ycfJ terminator RNA	0.0185
GGGAGAGCUGCUUGUUUAAAGCUGACUGGUUUUAUUGGAAUAGUGAAAUAGUCAACAUCAUACAUUAUAACAUCAGUUACUUUUCCACAAAGAAACUAAUCCAUUUAAGCGAAUAUCUCUGCACCUAAUAGUUAUAAAUGCCAUUUAACAGCCAGUUAUAGUACCACUUGAAACUAUAUUACCAACAAUAAUUAAUAGCUUUCGUAACAAUUUCCUUAUCUUUAAUUUGUAUUUUGCUAAGAUUUAUCUUAUGCUCACAAGUCGUAUUUCCAGAGGGGGAUAG [gfcA terminator RNA]	0.0199
ydhQ terminator RNA	0.0164
gfcA terminator RNA	0.0199
yagM terminator RNA	0.0118
sodA terminator RNA	0.00999
